Laboratory results as given in PMC5123055.

Legend:
ribosome (S. cerevisiae) = experiment: quantitative ribosome binding assay (ribosomes isolated from cell extract, immunoblot with αmyc); settings: ribosomes isolated under low-salt conditions; parent: 45.4
[1] = target: ribosome (S. cerevisiae) (S. cerevisiae (endogenous in yeast extract)); experiment: co-sedimentation; ribosome binding assay: cell extract (cycloheximide) spun through a low-salt sucrose cushion (25% sucrose, 20 mM Hepes/KOH pH 7.4, 120 mM potassium acetate, 2 mM magnesium acetate), 400,000 g, 4 °C, 25 min; immunoblot of supernatant and ribosomal pellet; strains: wild type, Δzuo1Δssz1, RAC-H128Q, Δssb1Δssb2 with Ssb1 variants

Row | response (% of total mycSsb1) (ribosome (S. cerevisiae)) | ribosome-binding, percent of the mycSsb1 control [1] [%] | Substance
1 | 1.9 |  | N-terminally myc-tagged Ssb1 (mycSsb1) (from UniProt P11484) K567E; R568E; R596D; K597D; K603D; R604D
2 |  | < 50 | mycSsb1 LBC (K567E/R568E) (from UniProt P11484 1-613) (natural protein)

Second part, the substance before the results:

Row | Substance | response (% of total mycSsb1) (ribosome (S. cerevisiae)) | ribosome-binding, percent of the mycSsb1 control [1] [%]
3 | N-terminally myc-tagged Ssb1 (mycSsb1) (from UniProt P11484) K567E; R568E; K603D; R604D | 3 | 
4 | mycSsb1 D1 (R596D/K597D) (from UniProt P11484 1-613) (natural protein) |  | < 50
5 | mycSsb1 D2 (K603D/R604D) (from UniProt P11484 1-613) (natural protein) |  | < 50
